Laboratory results published in PMC4948871, “The Molecular Mechanism of Ethylene-Mediated Root Hair Development Induced by Phosphate Starvation”.

T1: GST-EIN3(141-352) (Arabidopsis thaliana, UniProt O24606 141-352)
T1 sequence: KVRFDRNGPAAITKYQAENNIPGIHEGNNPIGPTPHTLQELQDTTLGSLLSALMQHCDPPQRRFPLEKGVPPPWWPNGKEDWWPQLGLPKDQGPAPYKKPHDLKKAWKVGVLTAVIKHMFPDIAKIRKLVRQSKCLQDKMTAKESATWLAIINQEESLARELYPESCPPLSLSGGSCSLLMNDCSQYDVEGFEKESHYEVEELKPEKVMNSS

B1: EXT14-P2 (dsDNA)
DNA 1: TGCATATGAATTAACATGCATATGAATTAACATGCATATGAATTAACATGCATATGAATTAACA
DNA 2: TGTTAATTCATATGCATGTTAATTCATATGCATGTTAATTCATATGCATGTTAATTCATATGCA
B2: RHS19-P1 (dsDNA)
DNA 1: TCTGCACGAATGTCACTCTGCACGAATGTCACTCTGCACGAATGTCACTCTGCACGAATGTCAC
DNA 2: GTGACATTCGTGCAGAGTGACATTCGTGCAGAGTGACATTCGTGCAGAGTGACATTCGTGCAGA
B3: RHS15-P2 (dsDNA)
DNA 1: GACAAATGAATTCGGAGACAAATGAATTCGGAGACAAATGAATTCGGAGACAAATGAATTCGGA
DNA 2: TCCGAATTCATTTGTCTCCGAATTCATTTGTCTCCGAATTCATTTGTCTCCGAATTCATTTGTC
B4: PRP1-P4 (dsDNA)
DNA 1: AACAGATGAACGACATAACAGATGAACGACATAACAGATGAACGACATAACAGATGAACGACAT
DNA 2: ATGTCGTTCATCTGTTATGTCGTTCATCTGTTATGTCGTTCATCTGTTATGTCGTTCATCTGTT

Each binder was assayed against T1, GST-EIN3(141-352) (assay: EMSA; competed by 500x unlabelled probe; 25 mM HEPES-KOH pH 7.5, 100 mM KCl, 0.1 mM EDTA, 10% glycerol, 1 mM DTT, 1 ug poly(dI-dC), 0.1 ug protein in 20 uL, room temperature 30 min; 5.5% PAGE in 0.5x TBE). Conditions: protein: recombinant; tags: GST (pGEX-6p-1); chain copies: 2; label: biotin; blunt.
B1: binds. B2: binds. B3: binds. B4: binds.
